From the supplement of paper PMC10724198
± gives the standard deviation of the averaged measurements.

Test system: Saccharomyces cerevisiae
Assay: protein stability index of tFT-peptide fusion (C-terminal peptide) (PSI (0-1 scale)); higher = more stable (slower turnover)
Conditions: genetic background: wild type; temperature: 30 C
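Also: PSI is a weighted mean of sequencing reads over stability bins, variants kept only with over 10 reads, mCherry proximal and sfGFP distal, peptide attached via GGGS linker.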

Sequence | protein stability index
LFVMGSACPLRI | 0.681 ± 0.029
LFVPAASRLAFS | 0.686 ± 0.011
LFVSGVPRSWDR | 0.707 ± 0.19
LGAAMRSAVEAA | 0.64 ± 0.013
LGCGVSLWVVPG | 0.712 ± 0.034
LGCSVGESVGAG | 0.68 ± 0.03
LGFNRRSKTRMI | 0.704 ± 0.014
LGGARWSGLPHV | 0.707 ± 0.085
LGGGAGAGYWVG | 0.741 ± 0.032
LGGGAGLRCGGF | 0.673 ± 0.02
LGGGARGSGGGA | 0.727 ± 0.028
LGGGGKNGSERV | 0.696 ± 0.017
LGGRTWTLVRSG | 0.64 ± 0.033
LGGVLSRQPYSE | 0.643 ± 0.014
LGGVRRRDWQEG | 0.677 ± 0.016
LGIVSLDWLWLR | 0.513 ± 0.043
LGKSRVHLWTGT | 0.706 ± 0.04
LGLFECAFLDRS | 0.736 ± 0.013
LGLPISREASVG | 0.637 ± 0.011
LGLWSSVFGSSL | 0.743 ± 0.018
LGPAPFSPPPPL | 0.738 ± 0.041
LGPLPHDGFSMF | 0.761 ± 0.011
LGPPPPPASVCR | 0.647 ± 0.012
LGPRRPGQSGSR | 0.712 ± 0.011
LGPSTCPCEVQS | 0.677 ± 0.015
LGRGRGGCLGEL | 0.5915 ± 0.0034

Sequence | protein stability index
LGRNLGKDPVEV | 0.593 ± 0.11
LGRNTVIGLCLE | 0.642 ± 0.1
LGRRVGWEVSGE | 0.687 ± 0.024
LGSSTGSVESLS | 0.737 ± 0.048
LGTETASSGFSG | 0.691 ± 0.029
LGTLLWWGAGRG | 0.708 ± 0.02
LGVAFCAPRLFY | 0.743 ± 0.023
LGVDFCRGVVVE | 0.654 ± 0.035
LGVGGRWVVPGA | 0.722 ± 0.032
LGVGSVGAKCGS | 0.639 ± 0.0071
LGVVGYGLGGGK | 0.707 ± 0.0096
LHAGWNLISSRL | 0.633 ± 0.037
LHAPFPHPPPPP | 0.6713 ± 0.005
LHFGSSSSRDFM | 0.709 ± 0.027
LHPTPPPVLAPP | 0.654 ± 0.12
LHRFPMISLLGP | 0.699 ± 0.018
LICRRVRLSMRG | 0.571 ± 0.028
LILLTIQSQPPV | 0.622 ± 0.0018
LIPRCLIPVTRY | 0.655 ± 0.018
LIQSDKTPRTTR | 0.696 ± 0.012
LIVIGGGAVNGV | 0.63 ± 0.069
LIWGRGGSRTGG | 0.747 ± 0.062
LKDQFKNKNKSS | 0.531 ± 0.04
LKELDTGVEQDE | 0.671 ± 0.0096
LKIDTCSQQEEN | 0.675 ± 0.11
LKKKKNKKQKTE | 0.6152 ± 0.0053

Sequence | protein stability index
LKLQGGCLETGA | 0.602 ± 0.015
LKNVKFTNNRKK | 0.694 ± 0.014
LKQHDSNESASR | 0.6565 ± 0.001
LKTGTAAGVKDH | 0.684 ± 0.049
LLAGEDGGVGEE | 0.653 ± 0.057
LLALAPFWVRHK | 0.68 ± 0.011
LLALPFPPSSLF | 0.701 ± 0.054
LLALQCSLFTPH | 0.678 ± 0.15
LLAPPLPPPRHG | 0.674 ± 0.018
LLCSSFSFHCFP | 0.667 ± 0.0068
LLCYSGVIFGSV | 0.59 ± 0.087
LLDEHGKRRKKI | 0.713 ± 0.0011
LLFCFIPCVFWG | 0.5096 ± 0.0029
LLFFSCGGVSSV | 0.657 ± 0.053
LLFFSLFFSPLP | 0.642 ± 0.041
LLFFSSCLDCFV | 0.635 ± 0.026
LLFPPVCRPCLS | 0.605 ± 0.11
LLFSRVDFSSPL | 0.804 ± 0.098
LLFYSVPLSSSF | 0.655 ± 0.072
LLGRSPSPTRPT | 0.65732 ± 0.00035
LLGVGYGSGGWR | 0.633 ± 0.089
LLGVYVRSFGSK | 0.698 ± 0.015
LLHMSRLWYTTF | 0.595 ± 0.022
LLKNPFRGTSVF | 0.737 ± 0.11
LLLFPRFPPPPL | 0.711 ± 0.038
LLLPFVSPPVYS | 0.569 ± 0.031

Sequence | protein stability index
LLLPSLAPTPTA | 0.654 ± 0.025
LLLSALLLSASP | 0.625 ± 0.0083
LLLSALSRRPSF | 0.678 ± 0.023
LLLSRLSPPPPS | 0.716 ± 0.021
LLLVLGLSLVGL | 0.564 ± 0.035
LLMHPCTVELIS | 0.594 ± 0.042
LLPCLSSLPPLP | 0.7 ± 0.064
LLPHALHVPFHL | 0.707 ± 0.1
LLPHLLVLLPSS | 0.623 ± 0.0049
LLPISFVSPPPG | 0.6915 ± 0.0026
LLPLPPPPPPPP | 0.685 ± 0.063
LLPLRPRSLGPP | 0.693 ± 0.0011
LLPPALPESPPP | 0.649 ± 0.0072
LLPPPSTPPRLI | 0.716 ± 0.052
LLPPTPIAFPPS | 0.728 ± 0.073
LLRALPSYRPFP | 0.696 ± 0.016
LLRLPCHLSQAS | 0.68 ± 0.035
LLRSSPPLPPPS | 0.737 ± 0.029
LLSNTINRIWRN | 0.658 ± 0.018
LLSSIPSLMFYY | 0.667 ± 0.046
LLSSLLLDQPYR | 0.6455 ± 0.0036
LLSSPPSPGFSL | 0.748 ± 0.12
LLSVVLPDSSLP | 0.738 ± 0.065
LLTCRPPQCLLC | 0.6303 ± 0.0038
LLTGCVPVLIRK | 0.707 ± 0.093
LLTLPPPRLLSL | 0.629 ± 0.022

Sequence | protein stability index
LLTSFFTLFCNT | 0.657 ± 0.05
LLVREVGVERTF | 0.7636 ± 0.0024
LLVSVHFSPPLY | 0.5515 ± 0.0023
LMFGDPIEANKE | 0.67 ± 0.01
LMGASAAFIKKG | 0.601 ± 0.067
LMYPGTSPLSPH | 0.711 ± 0.092
LNEVSLLSPAPL | 0.64 ± 0.057
LNHSLLHILSRV | 0.656 ± 0.022
LNLSIRDVTSSG | 0.657 ± 0.013
LNPLAILCSSVF | 0.617 ± 0.037
LNSSRLSFFCLE | 0.689 ± 0.079
LNWISKQVTEKH | 0.676 ± 0.013
LPAFAPLCLPTL | 0.703 ± 0.02
LPASWSRVSFAG | 0.6825 ± 0.0034
LPCPSFPSLPFL | 0.646 ± 0.1
LPGFPGPSCICH | 0.703 ± 0.21
LPHPRPPQSPPQ | 0.7 ± 0.03
LPLLLPFRTPDF | 0.693 ± 0.015
LPLLPLPSLSPP | 0.713 ± 0.035
LPLLRWASPRGF | 0.685 ± 0.0042
LPLPPLPPGMLS | 0.747 ± 0.073
LPLPPPSPFPPL | 0.691 ± 0.015
LPLQPSSNLTCL | 0.70856 ± 0.00024
LPLSLPTPPALD | 0.716 ± 0.075
LPPATMFFISAS | 0.558 ± 0.019
LPPCPLFPPVHF | 0.757 ± 0.1

Sequence | protein stability index
LPPCPPGGRRSR | 0.706 ± 0.036
LPPFLLPPFFSI | 0.718 ± 0.055
LPPFPPPSAPPS | 0.792 ± 0.023
LPPHRSSTPPPA | 0.644 ± 0.02
LPPLLDSPPCSP | 0.733 ± 0.04
LPPLPPIAPPPP | 0.8126 ± 0.0041
LPPLPPPSPFPS | 0.762 ± 0.074
LPPLPPSPPPLP | 0.685 ± 0.024
LPPLPRPLLLPR | 0.661 ± 0.044
LPPPAPRSHCPL | 0.725 ± 0.098
LPPPLPPCPSGP | 0.77 ± 0.048
LPPPPFPPPKPF | 0.683 ± 0.0084
LPPPPLPPHPPL | 0.748 ± 0.067
LPPPPLPQAPPT | 0.702 ± 0.075
LPPPPPCPPSPL | 0.671 ± 0.024
LPPPPPPPASPD | 0.699 ± 0.058
LPPPPPPPPLPH | 0.705 ± 0.1
LPPPPTCYDHPL | 0.676 ± 0.052
LPPPPTFPPPRS | 0.8307 ± 0.0063
LPPPSAPFPLPP | 0.743 ± 0.026
LPPPSPLPNSPL | 0.716 ± 0.13
LPPPSPPSSAPP | 0.734 ± 0.049
LPPPSPPTPPFP | 0.691 ± 0.018
LPPPSPTPPPPP | 0.683 ± 0.019
LPPRPPRPPPSP | 0.666 ± 0.019
LPPSLPPRLPPP | 0.658 ± 0.04

Sequence | protein stability index
LPPSPILFPASP | 0.754 ± 0.072
LPPSPPLPCPLL | 0.75 ± 0.048
LPPSPRLSFSPP | 0.701 ± 0.034
LPPSRSLLPPRP | 0.6531 ± 0.0059
LPPTPSSRGPHS | 0.669 ± 0.019
LPQPQPPVPPPL | 0.7209 ± 0.0042
LPRPAPPIRPRT | 0.74 ± 0.013
LPRPLSPPLPSP | 0.702 ± 0.042
LPRPPPPPALPT | 0.66 ± 0.087
LPRPPPRYLPPL | 0.711 ± 0.059
LPRRLLFSYPTF | 0.647 ± 0.02
LPSAPLLPLLRP | 0.68 ± 0.041
LPSASPPSPPPP | 0.652 ± 0.037
LPSLSSFALHMP | 0.685 ± 0.018
LPSPPVSIPYPS | 0.671 ± 0.029
LPSPSGSPVPFL | 0.771 ± 0.041
LPSPSSTLSPLR | 0.674 ± 0.059
LPSPTTNLFKPN | 0.711 ± 0.0091
LPSSCVLHMFFP | 0.7111 ± 0.0024
LPTLPGWKASCL | 0.674 ± 0.032
LPTPFKSSPSAA | 0.674 ± 0.024
LPVGYVCGLWVG | 0.543 ± 0.038
LPVSGLRAAGAM | 0.7154 ± 0.0034
LQALQTKPSQAL | 0.688 ± 0.083
LQDLPRLHALPN | 0.727 ± 0.086
LQHRHSTSPRPT | 0.657 ± 0.037

Sequence | protein stability index
LQRVPTDAVPDC | 0.7074 ± 0.0044
LQWSPQAELEGT | 0.712 ± 0.043
LRCVPAVFFACK | 0.647 ± 0.045
LRERKVYLVKIK | 0.575 ± 0.006
LRETDGSGQYVR | 0.686 ± 0.014
LRFWCFGDVCPV | 0.754 ± 0.057
LRGACWLARTRT | 0.677 ± 0.018
LRGEGPGRKGGA | 0.67 ± 0.05
LRGPRTSTPLST | 0.714 ± 0.036
LRGVACCSPILG | 0.631 ± 0.036
LRHWKALVTYLL | 0.566 ± 0.052
LRIGTCYCGVAW | 0.814 ± 0.049
LRLLYGYWGKFL | 0.547 ± 0.0072
LRLRGCSATVPG | 0.752 ± 0.063
LRLSSFSFSRLS | 0.701 ± 0.16
LRNCSVSGSIEW | 0.699 ± 0.019
LRPFSRVLRARS | 0.628 ± 0.019
LRPLPPRHPPAP | 0.624 ± 0.069
LRPPPPPAQPFV | 0.69 ± 0.033
LRPSLPCPPFCP | 0.641 ± 0.057
